We go through one molecule from US20140228540A1, “POLYPEPTIDES THAT BIND TISSUE INHIBITOR OF METALLOPROTEINASE TYPE THREE (TIMP-3), COMPOSITIONS AND METHODS” (Amgen Inc., priority 2009, published 2014).

One assay has as its target MMP-13 (Homo sapiens, UniProt P45452). As to the kind of experiment: TIMP-3 inhibition of MMP-13 (TIMP-3 alone). In kind it is biochemical. To be noted: TIMP-3 at 0.25 nM, 1.5 nM MMP-13, absence of any antibody. The text has this:
This Example described MMP-13 Inhibition Assays useful for measuring the effect(s) of TIMP-3 binding proteins (also referred to as test molecules, including LRP-1 peptides and antibodies to TIMP-3) on the ability of TIMP-3 to inhibit MMP-13. First, a titration of TIMP-3 inhibition of MMP-13 is run to empirically determine the IC50 of TIMP-3. […] Briefly, test molecules are titrated in assay buffer and added to black polystyrene 96 or 384 well assay plate (Griener Bio-One, Germany). […] Then recombinant TIMP-3 is diluted in assay buffer (20 mM Tris, 10 mM CaCl2, 10 uM ZnCl2, 0.01% Brij 35 (Calbiochem/EMD, San Diego, Calif.), pH 7.5) to a previously determined concentration (for example, TIMP-3's IC70 with 3 nM being a typical concentration), added to the test molecules and rotated for 10 minutes at room temperature. […]
None of the 22 antibodies evaluated adversely affected the ability of TIMP-3 to inhibit MMP-13, nor did they have an effect upon MMP-13 itself. In the TIMP-3 accumulation assay, the antibodies were evaluated for reproducible, titratable increase in the accumulation of TIMP-3 in supernatant fluid at levels of at least about 1.5 times higher than that observed with a negative control antibody. […]

The test system of another assay is cartilage-explants. Particulars: addition of the protein to explants; cited from earlier work.
For assay [1], the system named is rat medial meniscal tear model of osteoarthritis. Particulars: intra-articular injection; cited from earlier work.

B1: TIMP-3: tissue inhibitor of metalloproteinase 3, recombinant (protein, UniProt P35625 24-211, looked up)
Metalloproteinase inhibitor 3: CTCSPSHPQDAFCNSDIVIRAKVVGKKLVKEGPFGTLVYTIKQMKMYRGFTKMPHVQYIHTEASESLCGLKLEVNKYQYLLTGRVYDGKMYTGLCNFVERWDQLTLSQRKGLNYRYHLGCNCKIKSCYYLPCFVTSKNECLWTDMLSNFGYPGYQSKHYACIRQKGGYCSWYRGWAPPDKSIINATDP
On to B1, for which, in the assay with MMP-13, the “inhibition of MMP-13 activity” value was 54%. Also, the “cytokine-induced degradation of cartilage-explants” value in the assay with cartilage-explants is “prevents cytokine-induced degradation”. Besides, the cartilage damage entry in assay [1] is on record as “reduces cartilage damage”.
